According to US9645151B2, “Targeting phosphofructokinase and its glycosylation form for cancer” (California Institute of Technology, priority 2012, dated 2017):
Positions count from the first letter of the chain named. Names and notes keep the numbering of the source.

Tests used:
PFK1 [1] = target: T1, PFK1 (Homo sapiens, UniProt P17858); experiment: PFK1 oligomerization by native gel electrophoresis; conditions: 50 nM F-2,6-BP, 50° C. for 30 min (FIG. 21)
T1 construct: made in house
T1 sequence (P17858 1-780): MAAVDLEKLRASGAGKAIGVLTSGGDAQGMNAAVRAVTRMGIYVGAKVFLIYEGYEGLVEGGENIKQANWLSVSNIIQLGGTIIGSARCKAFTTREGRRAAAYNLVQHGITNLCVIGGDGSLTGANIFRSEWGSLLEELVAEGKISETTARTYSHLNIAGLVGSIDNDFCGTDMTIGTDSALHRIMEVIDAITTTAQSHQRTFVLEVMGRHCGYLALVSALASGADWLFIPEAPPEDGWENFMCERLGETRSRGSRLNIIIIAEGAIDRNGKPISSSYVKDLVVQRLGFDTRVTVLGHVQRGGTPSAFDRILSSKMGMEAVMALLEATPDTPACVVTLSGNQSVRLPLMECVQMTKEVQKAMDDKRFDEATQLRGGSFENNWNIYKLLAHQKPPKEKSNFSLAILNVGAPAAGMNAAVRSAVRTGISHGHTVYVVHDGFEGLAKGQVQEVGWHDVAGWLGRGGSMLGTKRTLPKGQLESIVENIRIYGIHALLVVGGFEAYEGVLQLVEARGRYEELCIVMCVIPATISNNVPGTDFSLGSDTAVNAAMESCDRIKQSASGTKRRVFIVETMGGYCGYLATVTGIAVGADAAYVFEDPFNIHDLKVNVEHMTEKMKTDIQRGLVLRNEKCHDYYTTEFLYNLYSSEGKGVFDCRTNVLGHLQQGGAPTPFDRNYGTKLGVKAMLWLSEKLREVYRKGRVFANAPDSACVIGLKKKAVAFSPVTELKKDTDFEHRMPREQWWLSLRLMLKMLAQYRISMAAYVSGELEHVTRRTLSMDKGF
Protocol: Flag-tagged PFK1 (L isoform) was transiently expressed in 293T cells with or without co-expression of HA-tagged OGT. After 36 h, Flag-tagged PFK1 was isolated from the lysate using Flag M2 immunoaffinity resin and eluted with a 3 Å˜Flag peptide as described above. The eluent was concentrated using Amicon Ultra Centrifugal Filters (10-kD molecular weight cutoff). Similarly, 293T cells expressing Flag-tagged PFK1 were treated with PUGNAc (100 μM, 12 h) or cultured under hypoxic conditions (0.5% O2, 5% CO2, and 94.5% N2) at 37° C. for 24 h, before protein isolation. As a control, heat treatment of PFK1 in the presence or absence of 50 nM F-2,6-BP was performed at 50° C. for 30 min. The proteins were then subjected to native gel electrophoresis (Bio-Rad) and visualized by Coomassie blue staining as described above.

[2] = tested on: H1299, A549, or 293T cells; experiment: Cell viability by trypan blue exclusion after PUGNAc treatment; format: cell-based, human; conditions: PUGNAc 100 μM for 9 h
PFK1 [3] = experiment: Analysis of PFK1 glycosylation (chemoenzymatic labeling, immunoblot); format: cell-based, human; conditions: 293T cells (FIG. 14)
Protocol: To carry out chemoenzymatic labeling and biotinylation of proteins in cell lysates, cell lines and tissues were first lysed in lysis buffer (1% SDS, 50 mM Tris-HCl, pH 7.5, 100 mM NaCl, 10 μM PUGNAc, and Complete™ protease inhibitors (Roche)). The cell lysate (400 μg) was then labeled according to the Click-iT O-GlcNAc Enzymatic Labeling System protocol (Invitrogen) and conjugated with an alkyne-biotin compound as per the Click-iT Protein Analysis Detection Kit protocol (Invitrogen). Control experiments were carried out in parallel in the absence of the labeling enzyme GalT. […] To quantify the percentage of glycosylation, the intensity of the band eluted from resin (the glycosylated protein fraction) and the band from the input (the total protein) were measured. […] The percentage of glycosylation on Flag-tagged PFK1 was determined by using an antibody to Flag. To quantify the percentage of glycosylation, the intensity of the PEG-shifted band (the glycosylated protein fraction) and the unshifted band (the non-glycosylated protein fraction) were measured and the ratio of the intensity of the glycosylated protein fraction over the intensity of the total protein (glycosylated protein fraction plus non-glycosylated protein fraction) was taken as the glycosylation stoichiometry.

PFK1 [4] = target: T2, PFK1 (Homo sapiens, UniProt P17858); experiment: PFK1 enzymatic assay; format: biochemical
T2 construct: made in house
T2 sequence (P17858 2-780): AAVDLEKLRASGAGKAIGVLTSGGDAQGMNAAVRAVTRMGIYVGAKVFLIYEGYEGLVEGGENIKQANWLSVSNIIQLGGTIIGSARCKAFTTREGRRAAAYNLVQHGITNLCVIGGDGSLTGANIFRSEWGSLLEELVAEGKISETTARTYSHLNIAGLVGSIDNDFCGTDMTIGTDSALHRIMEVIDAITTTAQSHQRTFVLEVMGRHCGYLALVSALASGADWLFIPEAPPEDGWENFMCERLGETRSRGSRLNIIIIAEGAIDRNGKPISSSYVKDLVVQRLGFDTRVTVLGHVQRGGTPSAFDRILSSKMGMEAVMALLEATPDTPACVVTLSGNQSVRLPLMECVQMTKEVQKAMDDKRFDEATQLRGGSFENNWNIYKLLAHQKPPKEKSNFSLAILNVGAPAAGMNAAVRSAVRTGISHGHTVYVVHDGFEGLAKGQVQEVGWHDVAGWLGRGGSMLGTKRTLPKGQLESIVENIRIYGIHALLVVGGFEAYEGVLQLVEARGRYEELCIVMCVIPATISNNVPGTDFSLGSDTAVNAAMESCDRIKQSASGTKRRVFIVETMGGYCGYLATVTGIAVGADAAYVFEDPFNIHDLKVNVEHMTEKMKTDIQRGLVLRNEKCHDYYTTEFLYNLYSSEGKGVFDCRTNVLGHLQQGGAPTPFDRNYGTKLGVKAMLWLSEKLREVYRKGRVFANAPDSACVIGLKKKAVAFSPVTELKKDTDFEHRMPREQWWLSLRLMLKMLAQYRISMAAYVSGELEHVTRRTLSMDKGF
Protocol: In order to measure PFK1 activity, a reaction was performed using either cell lysate (20 μg) or recombinant purified PFK1 (0.1 μg) in 1 ml of reaction buffer containing 50 mM Tris-HCl pH 7.5, 100 mM KCl, 5 mM MgCl2, 1 mM ATP, 0.2 mM NADH, 5 mM Na2HPO4, 0.1 mM AMP, 1 mM NH4Cl, 5 mM fructose-6-phosphate, 5 U of triose phosphate isomerase (Sigma-Aldrich), 1 U of aldolase (Sigma-Aldrich) and 1 U of α-glycerophosphate dehydrogenase (Sigma-Aldrich). Absorbance was recorded at 340 nm at room temperature every 15 s for 10 min using a Uvikon UV-Vis spectrophotometer (Research Instruments International). One unit of PFK1 activity is defined as the amount of enzyme that catalyzes the conversion of 1 μmol of fructose-6-phosphate to fructose-1,6-bisphosphate per min.
In order to determine the activation of PFK1 by F-2,6-BP (Sigma-Aldrich) over the indicated concentrations, reactions were performed in similar buffer conditions as described above except that an inhibitory concentration of ATP (3 mM) was used. […]
293T cells were transiently transfected with Flag-tagged PFKL, Myc-tagged PFKP, or Myc-tagged PFKM. […] Glycosylation levels were analyzed by chemoenzymatic labeling with a 5-kD mass tag, and PFK1 activities were measured on the purified proteins as described above.

O=P(O)(O)OC[C@H]1O[C@@](CO)(OP(=O)(O)O)[C@@H](O)[C@@H]1O [F-2,6-BP, fructose-2,6-bisphosphate]
rescue of reduction of PFK1 oligomerization state by heat denaturation (PFK1 [1]): partial rescue

CC(=O)N[C@H]1/C(=N/OC(=O)Nc2ccccc2)O[C@H](CO)[C@@H](O)[C@@H]1O [PUGNAc, O-(2-acetamido-2-deoxy-D-glucopyranosylidene) amino Nphenylcarbamate]
effect on cell viability [2]: did not affect cell viability

B1: S529A PFK1: modified PFK-1 polypeptide with serine to alanine substitution at position 529 (SEQ ID NO: 2) (protein)
chain: T1 sequence (P17858 1-780) with S529A
glycosylation of PFK1 mutant (PFK1 [3]): abolished
PFK1 activity versus F-2,6-BP concentration (PFK1 [4]; 3 mM ATP (FIG. 19)): impaired at lower F-2,6-BP concentrations
PFK1 activity under hypoxia (PFK1 [4]; expressed in 293T cells, hypoxic vs normoxic (FIG. 2A)): not significantly changed
